Reference: article PMC3582769 (Molecular cell, 2013)

Biological target: ELOBC heterodimer (UniProt Q15370;Q15369)
Test: SEC-MALS

Sequence of ELOBC heterodimer (Q15370 whole entry, chain 1 of 2): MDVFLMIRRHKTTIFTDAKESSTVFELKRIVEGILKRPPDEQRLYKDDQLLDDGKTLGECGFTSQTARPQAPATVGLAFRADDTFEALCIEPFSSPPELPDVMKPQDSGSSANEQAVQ
Sequence of ELOBC heterodimer (Q15369 whole entry, chain 2 of 2): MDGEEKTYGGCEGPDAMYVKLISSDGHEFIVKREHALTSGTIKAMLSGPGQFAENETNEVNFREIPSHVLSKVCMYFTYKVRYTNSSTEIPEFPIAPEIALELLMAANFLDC

B1: Strep-Vif (HIV-1 Vif, wild type) (natural protein)
chain: not shown
B1: binds.
